Measurements: article PMC4264199, “Peptide Array on Cellulose Support—A Screening Tool to Identify Peptides with Dipeptidyl-Peptidase IV Inhibitory Activity within the Sequence of α-Lactalbumin” (International Journal of Molecular Sciences, 2014)
Ends that are not written are not given here.

Target: T1, dipeptidyl-peptidase IV (DPP-IV) (Homo sapiens, UniProt P27487)
T1 construct: purchased Creative BioMart (Shirley, NY, USA); host or cells: HEK293 human cells
Test: DPP-IV inhibition assay on SPOT-synthesized peptides (cleaved from cellulose membrane)
Type: biochemical
Conditions: peptides cleaved from cellulose membrane, concentration not known (semi-quantitative); averages of four determinations from two experiments
Excerpt: Recombinant human dipeptidyl-peptidase IV (DPP-IV, EC 3.4.14.5, expressed in HEK293 human cells, >95% purity, activity >5500 pmoles Gly–Pro–7-amido-4-methylcoumarin/min/µg) was purchased from Creative BioMart (Shirley, NY, USA) while polyclonal goat DPP-IV antibody and polyclonal donkey anti-goat secondary antibody conjugated to horseradish peroxidase were obtained from R&D Systems (Minneapolis, MN, USA). Pierce™ ECL western blotting substrate and protein-free (TBS) blocking buffer were from Thermo Scientific (Rockford, IL, USA). Gly–Pro–p-nitroanilide (H-Gly–Pro–p-NA∙HCl) was purchased from Bachem Americas (Torrance, CA, USA). Synthesized peptides (≥95% purity) were prepared and purified by GL Biochem (Shanghai) Ltd. (Shanghai, China).
Peptide arrays of deca-peptides spanning the entire α-lactalbumin sequence with a frame shift of one amino acid between successive sequences were prepared by Kinexus Bioinformatics Corporation (Vancouver, BC, Canada). The peptides were synthesized from the C-terminal amino acid using the SPOT technology consisting of the stepwise coupling of the Fmoc-protected amino acids and cleavage of the side chain protection groups. The α-lactalbumin-derived peptides were synthesized on trioxatridecanediamine (TOTD) and β-alanine-modified Whatman 540 cellulose membranes for the binding and inhibition assays, respectively. For the inhibition assay, the peptides were synthesized in large dots (5–7 mm in diameter) and the quality of the synthesis was verified by HPLC analysis of quality controls spots included on the membranes.
In order to determine the effect of the SPOT-synthesized peptides on the activity of the DPP-IV enzyme, the peptides were first cleaved from the cellulose support by incubating the membranes with gaseous ammonia overnight. Peptide spots (5 mm in diameter) were then punched out using a single-hole punch and transferred into microcentrifuge tubes containing 150 µL of acetonitrile (50% in 100 mM Tris–HCl buffer pH 8.0). The peptide solution (50 µL) was pipetted into a 96-well microplate with 35 µL of the chromogenic substrate Gly–Pro–p-NA (0.29 mM in 100 mM Tris–HCl buffer pH 8.0). The mixture was pre-incubated for 10 min at 37 °C, whereupon 15 µL of DPP-IV (25 mU/mL) was added and the enzymatic reaction was carried out for 30 min at 37 °C. The reaction was then terminated by addition of 100 µL of 1 M sodium acetate buffer pH 4.0 and the absorbance of the released p-nitroaniline was measured at 405 nm using a Tecan Infinite® 200 Pro microplate reader (ESBE Scientific, Markham, ON, Canada). Positive and negative controls (DPP-IV activity with no inhibitor and no DPP-IV activity, respectively) were prepared using punched peptide-free cellulose spots from the same membrane used for peptide synthesis, and adding Tris-HCl buffer in place of the sample and in place of the sample and enzyme solution, respectively.
One unit of DPP-IV was defined as the concentration of enzyme that releases 1 µmol per min of p-nitroaniline from Gly–Pro–p-NA (100 µM) at 37 °C and pH 8.0.

T1 sequence (P27487 whole entry): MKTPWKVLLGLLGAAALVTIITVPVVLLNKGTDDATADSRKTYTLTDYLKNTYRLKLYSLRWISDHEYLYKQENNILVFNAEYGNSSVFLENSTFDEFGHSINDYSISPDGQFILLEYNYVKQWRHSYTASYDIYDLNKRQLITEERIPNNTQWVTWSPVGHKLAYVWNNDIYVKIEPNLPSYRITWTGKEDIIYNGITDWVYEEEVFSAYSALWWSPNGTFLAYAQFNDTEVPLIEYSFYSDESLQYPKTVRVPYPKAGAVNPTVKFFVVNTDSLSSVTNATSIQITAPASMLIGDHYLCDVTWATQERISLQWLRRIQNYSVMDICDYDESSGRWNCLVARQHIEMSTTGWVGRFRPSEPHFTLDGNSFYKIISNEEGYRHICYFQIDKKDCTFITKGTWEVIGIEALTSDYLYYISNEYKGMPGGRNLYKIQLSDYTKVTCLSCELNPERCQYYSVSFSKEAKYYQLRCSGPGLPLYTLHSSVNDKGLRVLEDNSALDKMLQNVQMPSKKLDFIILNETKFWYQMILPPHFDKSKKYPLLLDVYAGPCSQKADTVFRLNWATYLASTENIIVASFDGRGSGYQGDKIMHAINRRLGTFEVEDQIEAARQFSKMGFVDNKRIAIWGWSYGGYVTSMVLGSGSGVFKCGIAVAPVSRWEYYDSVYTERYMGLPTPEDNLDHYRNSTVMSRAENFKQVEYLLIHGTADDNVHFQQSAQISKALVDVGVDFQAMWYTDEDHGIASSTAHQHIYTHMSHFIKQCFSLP

Row | Substance | Percent inhibition of DPP-IV activity, SPOT-synthesized deca-peptides
1 | G2: α-lactalbumin-derived deca-peptide, residues 68–77 (Table S1) (HSSNICNISC; UniProt P00711 87-96, looked up, fragment) | 9%
2 | G3: α-lactalbumin-derived deca-peptide, residues 69–78 (Table S1) (SSNICNISCD; UniProt P00711 88-97, looked up, fragment) | 16%
3 | G4: α-lactalbumin-derived deca-peptide, residues 70–79 (Table S1) (SNICNISCDK; UniProt P00711 89-98, looked up, fragment) | 19%
4 | GLFQINNKIW [E7] | 9%
5 | H3: α-lactalbumin-derived deca-peptide, residues 80–89 (Table S1) (FLDDDLTDDI; UniProt P00711 99-108, looked up, fragment) | 18%
6 | H4: α-lactalbumin-derived deca-peptide, residues 81–90 (Table S1) (LDDDLTDDIM; UniProt P00711 100-109, looked up, fragment) | 21%
7 | H5: α-lactalbumin-derived deca-peptide, residues 82–91 (Table S1) (DDDITDDIMC; UniProt P00709 101-110, looked up, fragment) | 14%
8 | H6: α-lactalbumin-derived deca-peptide, residues 83–92 (Table S1) (DDLTDDIMCV; UniProt P00711 102-111, looked up, fragment) | 19%
9 | H7: α-lactalbumin-derived deca-peptide, residues 84–93 (Table S1) (DLTDDIMCVK; UniProt P00711 103-112, looked up, fragment) | 25%
10 | H8: α-lactalbumin-derived deca-peptide, residues 85–94 (Table S1) (LTDDIMCVKK; UniProt P00711 104-113, looked up, fragment) | 20%
11 | H10: α-lactalbumin-derived deca-peptide, residues 87–96 (Table S1) (DDIMCVKKIL; UniProt P00711 106-115, looked up, fragment) | 20%
12 | H11: α-lactalbumin-derived deca-peptide, residues 88–97 (Table S1) (DIMCVKKILD; UniProt P00711 107-116, looked up, fragment) | 15%
13 | HTSGYDTQAI [C10] | 11%
14 | I6: α-lactalbumin-derived deca-peptide, residues 94–103 (Table S1) (KILDKVGINY; UniProt P00711 113-122, looked up, fragment) | 20%
15 | INNKIWCKDD [E11, INNKIWCKDD] | 21%
16 | IWCKDDQNPH [F4] | 21%

Results, then the substance that gave them:

Row | Percent inhibition of DPP-IV activity, SPOT-synthesized deca-peptides | Substance
17 | 25% | G5: α-lactalbumin-derived deca-peptide, residues 71–80 (Table S1) (NICNISCDKF; UniProt P00711 90-99, looked up, fragment)
18 | 17% | G7: α-lactalbumin-derived deca-peptide, residues 73–82 (Table S1) (CNISCDKFLD; UniProt P00711 92-101, looked up, fragment)
19 | 19% | G8: α-lactalbumin-derived deca-peptide, residues 74–83 (Table S1) (NISCDKFLDD; UniProt P00711 93-102, looked up, fragment)
20 | 18% | G9: α-lactalbumin-derived deca-peptide, residues 75–84 (Table S1) (ISCDKFLDDD; UniProt P00711 94-103, looked up, fragment)
21 | 19% | H1: α-lactalbumin-derived deca-peptide, residues 78–87 (Table S1) (DKFLDDDLTD; UniProt P00711 97-106, looked up, fragment)
22 | 18% | H2: α-lactalbumin-derived deca-peptide, residues 79–88 (Table S1) (KFLDDDLTDD; UniProt P00711 98-107, looked up, fragment)
23 | 20% | H9: α-lactalbumin-derived deca-peptide, residues 86–95 (Table S1) (TDDIMCAKKI; UniProt P00709 105-114, looked up, fragment)
24 | 19% | HAEGTFTSDY [K10, HAEGTFTSDY, reference compound]
25 | 20% | HKALCSEKLD [J8]
26 | 17% | I1: α-lactalbumin-derived deca-peptide, residues 89–98 (Table S1) (IMCVKKILDK; UniProt P00711 108-117, looked up, fragment)
27 | 19% | I2: α-lactalbumin-derived deca-peptide, residues 90–99 (Table S1) (MCAKKILDIK; UniProt P00709 109-118, looked up, fragment)
28 | 26% | I3: α-lactalbumin-derived deca-peptide, residues 91–100 (Table S1) (CVKKILDKVG; UniProt P00711 110-119, looked up, fragment)
29 | 19% | I7: α-lactalbumin-derived deca-peptide, residues 95–104 (Table S1) (ILDKVGINYW; UniProt P00711 114-123, looked up, fragment)
30 | 16% | I8: α-lactalbumin-derived deca-peptide, residues 96–105 (Table S1) (LDKVGINYWL; UniProt P00711 115-124, looked up, fragment)
31 | 22% | I9: α-lactalbumin-derived deca-peptide, residues 97–106 (Table S1) (DKVGINYWLA; UniProt P00711 116-125, looked up, fragment)
32 | 22% | I10: α-lactalbumin-derived deca-peptide, residues 98–107 (Table S1) (KVGINYWLAH; UniProt P00711 117-126, looked up, fragment)
33 | 20% | I11: α-lactalbumin-derived deca-peptide, residues 99–108 (Table S1) (VGINYWLAHK; UniProt P00711 118-127, looked up, fragment)
34 | 15% | IVQNNDSTEY [D8]
35 | 25% | J1: α-lactalbumin-derived deca-peptide, residues 100–109 (Table S1) (GIDYWLAHKA; UniProt P00709 119-128, looked up, fragment)
36 | 18% | J2: α-lactalbumin-derived deca-peptide, residues 101–110 (Table S1) (IDYWLAHKAL; UniProt P00709 120-129, looked up, fragment)
